{"source": "paper PMC8318587", "about": "“Structure-guided microbial targeting of antistaphylococcal prodrugs” (eLife, 2021)", "proteins": {"B1": {"name": "SaGloB (Staphylococcus aureus subsp. aureus str. Newman) (protein)", "chain": "MRISSLTLGLVDTNTYFIENDKAVILIDPSGESEKIIKKLNQINKPLKAILLTHAHFDHIGAVDDIVDRFDVPVYMHEAEFDFLKDPVKNGADKFKQYGLPIITSKVTPEKLNEGSTEIEGFKFNVLHTPGHSPGSLTYVFDEFAVVGDTLFNNGIGRTDLYKGDYETLVDSIQDKIFELEGDLPLFPGHGPYTTVDDEQLNPFLHG"}}, "experiment_in_all_cases": "Esterase substrate specificity, fluorogenic SAR library kinetics", "format_in_all_cases": "biochemical, Staphylococcus aureus", "settings_in_all_cases": "other: SaGloB, fluorogenic ester substrate; pH 7.5; 37.0 °C", "key": {"[1]": {"substrate": "COCCC(=O)OCOc1ccc2c(c1)Oc1cc(OCOC(=O)CCOC)ccc1C21OC(=O)c2ccccc21", "procedure": "(§1) Kinetic measurements were performed according to [White et al., 2018] with minor variation. Lyophilized human and mouse sera were resuspended according to manufacturer instructions in highly pure, filtered water at protein concentrations of 85 mg/mL and 70 mg/mL, respectively. One milliliter of resuspended serum was added to a 24 mL mastermix for a final concentration of 31.25 mM Tris pH 7.5, 312.5 mM NaCl, 1.25 mM MgCl2, 12.5% glycerol, and 3.4 mg/mL or 2.8 mg/mL protein for human and mouse serum, respectively. For purified proteins, 5 mL of a 75 µg/mL stock was added to yield a 20 mL mastermix containing 31.25 mM Tris pH 7.5, 312.5 mM NaCl, 1.25 mM MgCl2, 12.5% glycerol, and 18.75 µg/mL protein. Mastermix was stored on ice when not in use. Twenty microliters of mastermix was transferred to a black, 96-well half area microplate (Corning, CLS3993) and prewarmed at 37°C. Fluorogenic substrates were prepared as 10 mM stock solutions in 100% DMSO and were diluted in water to a starting concentration of 500 µM. Enzyme catalyzed substrate hydrolysis was initiated by addition of 5 µL substrate dilution in technical duplicate to the prewarmed serum or protein solution. Final assay concentrations were as follows: 25 mM Tris pH 7.5, 250 mM NaCl, 1 mM MgCl2, 10% glycerol, and protein at a concentration of 2.72 mg/mL (human serum), 2.24 mg/mL (mouse serum), or 15 µg/mL (FrmB, GloB). The resulting change in fluorescence (λex = 485 nm, λem = 520 nm) was followed for 15 min at 37°C, collecting data every 30 s on a FLUOstar Omega microplate reader (BMG Labtech). Fluorescence measurements were converted to molar concentrations using a fluorescein standard curve (2.5 nmol–0.6 pmol). The initial rates of reaction were measured three independent times with two technical replicates per measurement and fit to a line using GraphPad Prism (GraphPad Software, La Jolla, CA). Initial rates of reaction were plotted versus the concentration of substrate and fit to a standard Michaelis–Menten equation (v = Vmax[S]/(Km + [S])), yielding estimates of Vmax and Km. Values for kcat and kcat/Km were calculated based on amount of enzyme added when purified enzymes were used."}, "[2]": {"substrate": "CSC(C)C(=O)OCOc1ccc2c(c1)Oc1cc(OCOC(=O)C(C)SC)ccc1C21OC(=O)c2ccccc21", "procedure": "as §1"}, "[3]": {"substrate": "CCOCCC(=O)OCOc1ccc2c(c1)Oc1cc(OCOC(=O)CCOCC)ccc1C21OC(=O)c2ccccc21", "procedure": "as §1"}, "[4]": {"substrate": "CC(C)CCC(=O)OCOc1ccc2c(c1)Oc1cc(OCOC(=O)CCC(C)C)ccc1C21OC(=O)c2ccccc21", "procedure": "as §1"}, "[5]": {"substrate": "CCC(OC)C(=O)OCOc1ccc2c(c1)Oc1cc(OCOC(=O)C(CC)OC)ccc1C21OC(=O)c2ccccc21", "procedure": "as §1"}, "[6]": {"substrate": "C=CCOC(C)C(=O)OCOc1ccc2c(c1)Oc1cc(OCOC(=O)C(C)OCC=C)ccc1C21OC(=O)c2ccccc21", "procedure": "as §1"}}, "data": [{"protein": "B1", "values": [{"measurement": "Km", "setting": "[1]", "result": 18.0, "unit": "µM"}, {"measurement": "Vmax", "setting": "[1]", "result": 1.39, "unit": "pmol*min-1*μg protein-1"}, {"measurement": "kcat", "setting": "[1]", "result": "0.208 10-3 s-1"}, {"measurement": "kcat/Km", "setting": "[1]", "result": 11.5, "unit": "M⁻¹ s⁻¹"}, {"measurement": "Km", "setting": "[2]", "result": 49.5, "unit": "µM"}, {"measurement": "Vmax", "setting": "[2]", "result": 0.722, "unit": "pmol*min-1*μg protein-1"}, {"measurement": "kcat", "setting": "[2]", "result": "0.108 10-3 s-1"}, {"measurement": "kcat/Km", "setting": "[2]", "result": 2.18, "unit": "M⁻¹ s⁻¹"}, {"measurement": "Km", "setting": "[3]", "result": 21.2, "unit": "µM"}, {"measurement": "Vmax", "setting": "[3]", "result": 0.731, "unit": "pmol*min-1*μg protein-1"}, {"measurement": "kcat", "setting": "[3]", "result": "0.109 10-3 s-1"}, {"measurement": "kcat/Km", "setting": "[3]", "result": 5.15, "unit": "M⁻¹ s⁻¹"}, {"measurement": "Km", "setting": "[4]", "result": 48.00, "unit": "µM"}, {"measurement": "Vmax", "setting": "[4]", "result": 0.444, "unit": "pmol*min-1*μg protein-1"}, {"measurement": "kcat", "setting": "[4]", "result": "0.0663 10-3 s-1"}, {"measurement": "kcat/Km", "setting": "[4]", "result": 1.38, "unit": "M⁻¹ s⁻¹"}, {"measurement": "Km", "setting": "[5]", "result": 55.5, "unit": "µM"}, {"measurement": "Vmax", "setting": "[5]", "result": 2.54, "unit": "pmol*min-1*μg protein-1"}, {"measurement": "kcat", "setting": "[5]", "result": "0.380 10-3 s-1"}, {"measurement": "kcat/Km", "setting": "[5]", "result": 6.84, "unit": "M⁻¹ s⁻¹"}, {"measurement": "Km", "setting": "[6]", "result": 36.91, "unit": "µM"}, {"measurement": "Vmax", "setting": "[6]", "result": 1.04, "unit": "pmol*min-1*μg protein-1"}, {"measurement": "kcat", "setting": "[6]", "result": "0.156 10-3 s-1"}, {"measurement": "kcat/Km", "setting": "[6]", "result": 4.21, "unit": "M⁻¹ s⁻¹"}]}]}
